Test results taken from IntAct's records for PubMed 23468591.

B1: IkB-like protein (African swine fever virus (isolate Tick/Malawi/Lil 20-1/1983)), O36972 (parent)
chain: MDTIGLFSVEAEHLFVEWVKKCIKKGDLTLFETLFNADPWIVNRCNKNKITVFMLICIYGRLDFLRFLFKQESYPGEIVNHYRRDKDGNSAWHYLAEKNNHLLLEEVLDYFGKNGIRVCFPNFNGVTPIMKAAMRGRTLSVLSLLKYGANPNRKDYLKGFTTWDWAVFTGHADLVKTLNKGYQKPLFMHFPLYKLDVFHRRFKKKPKIIITGCEDNVYEKLPEQNSNFLCVKKLNKYGK

Variants of: B1
Conditions: with PPP3CA

Variant	effect of a mutation on the interaction
F228A;L229A;V231A;K232A	disrupting interaction strength
